Laboratory results published in article PMC10104587 (Proceedings of the National Academy of Sciences of the …, 2023).

B2: CNGB1 subunit of the bovine rod CNG channel (natural protein)
chain: MLGWVQRVLPQPPGTPQKTKQEEEGTEPEPELEPKPETAPEETELEEVSLPPEEPCVGKEVAAVTLGPQGTQETALTPPTSLQAQVSVAPEAHSSPRGWVLTWLRKGVEKVVPQPAHSSRPSQNIAAGLESPDQQAGAQILGQCGTGGSDEPSEPSRAEDPGPGPWLLRWFEQNLEKMLPQPPKISEGWRDEPTDAALGPEPPGPALEIKPMLQAQESPSLPAPGPPEPEEEPIPEPQPTIQASSLPPPQDSARLMAWILHRLEMALPQPVIRGKGGEQESDAPVTCDVQTISILPGEQEESHLILEEVDPHWEEDEHQEGSTSTSPRTSEAAPADEEKGKVVEQTPRELPRIQEEKEDEEEEKEDGEEEEEEGREKEEEEGEEKEEEEGREKEEEEGEKKEEEGREKEEEEGGEKEDEEGREKEEEEGRGKEEEEGGEKEEEEGRGKEEVEGREEEEDEEEEQDHSVLLDSYLVPQSEEDRSEESETQDQSEVGGAQAQGEVGGAQALSEESETQDQSEVGGAQDQSEVGGAQAQGEVGGAQEQDGVGGAQDQSTSHQELQEEALADSSGVPATEEHPELQVEDADADSRPLIAEENPPSPVQLPLSPAKSDTLAVPGSATGSLRKRLPSQDDEAEELKMLSPAASPVVAWSDPTSPQGTDDQDRATSTASQNSAIINDRLQELVKLFKERTEKVKEKLIDPDVTSDEESPKPSPAKKAPEPAPEVKPAEAGQVEEEHYCEMLCCKFKRRPWKKYQFPQSIDPLTNLMYILWLFFVVLAWNWNCWLIPVRWAFPYQTPDNIHLWLLMDYLCDLIYLLDITVFQMRLQFVRGGDIITDKKEMRNNYVKSQRFKMDMLCLLPLDLLYLKFGVNPLLRLPRCLKYMAFFEFNNRLESILSKAYVYRVIRTTAYLLYSLHLNSCLYYWASAYEGLGSTHWVYDGVGNSYIRCYYWAVKTLITIGGLPDPRTLFEIVFQGLNYFTGVFAFSVMIGQMRDVVGAATAGQTYYRSCMDSTVKYMNFYKIPRSVQNRVKTWYEYTWHSQGMLDESELMVQLPDKMRLDLAIDVNYSIVSKVALFQGCDRQMIFDMLKRLRSVVYLPNDYVCKKGEIGREMYIIQAGQVQVLGGPDGKSVLVTLKAGSVFGEISLLAVGGGNRRTANVVAHGFTNLFILDKKDLNEILVHYPESQKLLRKKARRMLRNNNKPKEKSVLILPPRAGTPKLFNAALAAAGKMGAKGGRGGRLALLRARLKELAALEAAARQQQLLEQAKSSEDAAVGEEGSASPEQPPRPEPPAPEAPAPEPTAPEPLAPEAPAPEAPAPSSPPPASQERPEGDKDAARPEEHPVRIHVTLGPDPSEQILLVEVPEKQEEKEKKEEETEEKEEGEEARKEKEEE

How the values were obtained:
[1] = target: B2; test: cryo-EM structure
cryo-EM structure = target: the molecule itself; test: cryo-EM structure
bovine calmodulin = bovine calmodulin (bovine, UniProt P62157 1-149); test: limited proteolysis-coupled mass spectrometry

B1: CNGA1 subunit of the bovine rod CNG channel (natural protein, UniProt Q00194 1-690, looked up)
chain: MKKVIINTWHSFVNIPNVVGPDVEKEITRMENGACSSFSGDDDDSASMFEESETENPHARDSFRSNTHGSGQPSQREQYLPGAIALFNVNNSSNKEQEPKEKKKKKKEKKSKPDDKNENKKDPEKKKKKEKDKDKKKKEEKGKDKKEEEKKEVVVIDPSGNTYYNWLFCITLPVMYNWTMIIARACFDELQSDYLEYWLAFDYLSDVVYLLDMFVRTRTGYLEQGLLVKEERKLIDKYKSTFQFKLDVLSVIPTDLLYIKFGWNYPEIRLNRLLRISRMFEFFQRTETRTNYPNIFRISNLVMYIIIIIHWNACVYFSISKAIGFGNDTWVYPDVNDPDFGRLARKYVYSLYWSTLTLTTIGETPPPVRDSEYFFVVADFLIGVLIFATIVGNIGSMISNMNAARAEFQARIDAIKQYMHFRNVSKDMEKRVIKWFDYLWTNKKTVDEREVLKYLPDKLRAEIAINVHLDTLKKVRIFADCEAGLLVELVLKLQPQVYSPGDYICKKGDIGREMYIIKEGKLAVVADDGITQFVVLSDGSYFGEISILNIKGSKAGNRRTANIKSIGYSDLFCLSKDDLMEALTEYPDAKGMLEEKGKQILMKDGLLDINIANAGSDPKDLEEKVTRMESSVDLLQTRFARILAEYESMQQKLKQRLTKVEKFLKPLIDTEFSAIEGSGTESGPTDSTQD
B1: binds [1]; binds (cryo-EM structure); binds (bovine calmodulin).

B2: binds (bovine calmodulin).
